Experiments:
[1] = target: T1, NR2A (Homo sapiens, UniProt Q12879); test: Ion channel panel (IonWorks Barracuda): NR2A; format: cell-based; conditions: 100% = no change, <100% = inhibition
T1 construct: host or cells: HEK293 or CHO
Method in brief: (§1)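 Transfected HEK293 or CHO cells were exposed for at least 5 min to peptides at 200 nM and 20 μM final, tested in duplicate, in HEPES-buffered physiological saline. Activation was taken as peptide-plus-agonist current over control current ×100, and inhibition as 1 minus that ratio ×100. Each channel's control was its own reference compound.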

[2] = target: T2, Kir2.1 (Homo sapiens, UniProt P63252); test: Ion channel panel (IonWorks Barracuda): Kir2.1; format: cell-based; conditions: 100% = no change, <100% = inhibition
T2 construct: host or cells: HEK293 or CHO
Method in brief: as §1

[3] = target: T3, NR2B (Homo sapiens, UniProt Q13224); test: Ion channel panel (IonWorks Barracuda): NR2B; format: cell-based; conditions: 100% = no change, <100% = inhibition
T3 construct: host or cells: HEK293 or CHO
Method in brief: as §1

[4] = target: T4, TRPA1 (Homo sapiens, UniProt O75762); test: Ion channel panel (IonWorks Barracuda): TRPA1; format: cell-based; conditions: 100% = no change, <100% = inhibition
T4 construct: host or cells: HEK293 or CHO
Method in brief: as §1

[5] = target: Nav1.5 (Homo sapiens, UniProt Q14524); test: in vitro; conditions: 100% = no change; for Activity of Nav1.5 with peptide, expressed as a percentage of the reference compound: peptide at 0.2 μM; for Activity of Nav1.5 with peptide (percentage of the reference compound): peptide at 20 μM
Method in brief: as §1

[6] = target: hERG (Homo sapiens, UniProt Q12809); test: in vitro; conditions: 100% = no change, <100% = inhibition
Method in brief: as §1

[7] = target: T5, Kv1.1 (Homo sapiens, UniProt Q09470); test: cell-based; format: cell-based; conditions: 100% = no change, <100% = inhibition
T5 construct: host or cells: HEK293 or CHO
Method in brief: as §1

[8] = target: T6, Kv1.3 (Homo sapiens, UniProt P22001); test: cell-based; format: cell-based; conditions: 100% = no change, <100% = inhibition
T6 construct: host or cells: HEK293 or CHO
Method in brief: as §1

[9] = target: T7, Kv1.2 (Homo sapiens, UniProt P16389); test: cell-based; format: cell-based; conditions: 100% = no change, <100% = inhibition
T7 construct: host or cells: HEK293 or CHO
Method in brief: as §1

[10] = target: T8, TRPV1 (Homo sapiens, UniProt Q8NER1); test: Ion channel panel (IonWorks Barracuda): TRPV1; format: cell-based; conditions: 100% = no change, <100% = inhibition
T8 construct: host or cells: HEK293 or CHO
Method in brief: as §1

[11] = test system: GABA; test: Ion channel panel (IonWorks Barracuda): GABA; format: cell-based; conditions: 100% = no change, <100% = inhibition
Method in brief: as §1

[12] = target: T9, 5HT3a (Homo sapiens, UniProt P46098); test: Ion channel panel (IonWorks Barracuda): 5HT3a; format: cell-based
T9 construct: host or cells: HEK293 or CHO
T9 sequence (P46098 whole entry, looked up): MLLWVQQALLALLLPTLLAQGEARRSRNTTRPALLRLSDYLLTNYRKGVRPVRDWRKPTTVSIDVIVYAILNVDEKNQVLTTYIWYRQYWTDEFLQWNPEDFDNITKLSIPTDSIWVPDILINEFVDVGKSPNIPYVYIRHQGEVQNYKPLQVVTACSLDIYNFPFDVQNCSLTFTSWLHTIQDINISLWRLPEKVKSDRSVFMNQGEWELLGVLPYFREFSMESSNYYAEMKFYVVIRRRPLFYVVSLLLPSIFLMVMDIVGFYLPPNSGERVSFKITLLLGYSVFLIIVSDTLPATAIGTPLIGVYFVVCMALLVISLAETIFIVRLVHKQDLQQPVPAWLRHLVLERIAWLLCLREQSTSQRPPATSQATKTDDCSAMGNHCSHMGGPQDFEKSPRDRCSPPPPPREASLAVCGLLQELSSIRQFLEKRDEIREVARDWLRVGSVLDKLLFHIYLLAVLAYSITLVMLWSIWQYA
Method in brief: as §1

[13] = target: T10, α4β2 (Homo sapiens, UniProt P17787+P43681); test: Ion channel panel (IonWorks Barracuda): α4β2; format: cell-based; conditions: 100% = no change, <100% = inhibition
T10 construct: host or cells: HEK293 or CHO
Method in brief: as §1

[14] = target: T11, Cav2.1 (Homo sapiens, UniProt O00555); test: cell-based; conditions: 100% = no change, <100% = inhibition
T11 construct: host or cells: HEK293 or CHO
Method in brief: as §1

[15] = target: T12, Kv2.1 (Homo sapiens, UniProt Q14721); test: cell-based; conditions: 100% = no change, <100% = inhibition
T12 construct: host or cells: HEK293 or CHO
Method in brief: as §1

[16] = target: T13, Cav2.2 (Homo sapiens, UniProt Q00975); test: cell-based; conditions: 100% = no change, <100% = inhibition
T13 construct: host or cells: HEK293 or CHO
Method in brief: as §1

[17] = target: T14, α3β4 (Homo sapiens, UniProt P30926+P32297); test: Ion channel panel (IonWorks Barracuda): α3β4; format: cell-based; conditions: 100% = no change, <100% = inhibition
T14 construct: host or cells: HEK293 or CHO
Method in brief: as §1

[18] = target: T15, Nav1.7 (Homo sapiens, UniProt Q15858); test: cell-based; format: cell-based; conditions: 100% = no change; for Activity of Nav1.7 with peptide, expressed as a percentage of the reference compound: peptide at 0.2 μM; for Activity of Nav1.7 with peptide (percentage of the reference compound): peptide at 20 μM
T15 construct: host or cells: HEK293 or CHO

[19] = first of two Nav1.5 columns (probably TP1)
[20] = second of two Nav1.5 columns (probably TP2)
[21] = first of two Nav1.7 columns (probably TP1)
[22] = second of two Nav1.7 columns (probably TP2)

T15 sequence (Q15858 whole entry): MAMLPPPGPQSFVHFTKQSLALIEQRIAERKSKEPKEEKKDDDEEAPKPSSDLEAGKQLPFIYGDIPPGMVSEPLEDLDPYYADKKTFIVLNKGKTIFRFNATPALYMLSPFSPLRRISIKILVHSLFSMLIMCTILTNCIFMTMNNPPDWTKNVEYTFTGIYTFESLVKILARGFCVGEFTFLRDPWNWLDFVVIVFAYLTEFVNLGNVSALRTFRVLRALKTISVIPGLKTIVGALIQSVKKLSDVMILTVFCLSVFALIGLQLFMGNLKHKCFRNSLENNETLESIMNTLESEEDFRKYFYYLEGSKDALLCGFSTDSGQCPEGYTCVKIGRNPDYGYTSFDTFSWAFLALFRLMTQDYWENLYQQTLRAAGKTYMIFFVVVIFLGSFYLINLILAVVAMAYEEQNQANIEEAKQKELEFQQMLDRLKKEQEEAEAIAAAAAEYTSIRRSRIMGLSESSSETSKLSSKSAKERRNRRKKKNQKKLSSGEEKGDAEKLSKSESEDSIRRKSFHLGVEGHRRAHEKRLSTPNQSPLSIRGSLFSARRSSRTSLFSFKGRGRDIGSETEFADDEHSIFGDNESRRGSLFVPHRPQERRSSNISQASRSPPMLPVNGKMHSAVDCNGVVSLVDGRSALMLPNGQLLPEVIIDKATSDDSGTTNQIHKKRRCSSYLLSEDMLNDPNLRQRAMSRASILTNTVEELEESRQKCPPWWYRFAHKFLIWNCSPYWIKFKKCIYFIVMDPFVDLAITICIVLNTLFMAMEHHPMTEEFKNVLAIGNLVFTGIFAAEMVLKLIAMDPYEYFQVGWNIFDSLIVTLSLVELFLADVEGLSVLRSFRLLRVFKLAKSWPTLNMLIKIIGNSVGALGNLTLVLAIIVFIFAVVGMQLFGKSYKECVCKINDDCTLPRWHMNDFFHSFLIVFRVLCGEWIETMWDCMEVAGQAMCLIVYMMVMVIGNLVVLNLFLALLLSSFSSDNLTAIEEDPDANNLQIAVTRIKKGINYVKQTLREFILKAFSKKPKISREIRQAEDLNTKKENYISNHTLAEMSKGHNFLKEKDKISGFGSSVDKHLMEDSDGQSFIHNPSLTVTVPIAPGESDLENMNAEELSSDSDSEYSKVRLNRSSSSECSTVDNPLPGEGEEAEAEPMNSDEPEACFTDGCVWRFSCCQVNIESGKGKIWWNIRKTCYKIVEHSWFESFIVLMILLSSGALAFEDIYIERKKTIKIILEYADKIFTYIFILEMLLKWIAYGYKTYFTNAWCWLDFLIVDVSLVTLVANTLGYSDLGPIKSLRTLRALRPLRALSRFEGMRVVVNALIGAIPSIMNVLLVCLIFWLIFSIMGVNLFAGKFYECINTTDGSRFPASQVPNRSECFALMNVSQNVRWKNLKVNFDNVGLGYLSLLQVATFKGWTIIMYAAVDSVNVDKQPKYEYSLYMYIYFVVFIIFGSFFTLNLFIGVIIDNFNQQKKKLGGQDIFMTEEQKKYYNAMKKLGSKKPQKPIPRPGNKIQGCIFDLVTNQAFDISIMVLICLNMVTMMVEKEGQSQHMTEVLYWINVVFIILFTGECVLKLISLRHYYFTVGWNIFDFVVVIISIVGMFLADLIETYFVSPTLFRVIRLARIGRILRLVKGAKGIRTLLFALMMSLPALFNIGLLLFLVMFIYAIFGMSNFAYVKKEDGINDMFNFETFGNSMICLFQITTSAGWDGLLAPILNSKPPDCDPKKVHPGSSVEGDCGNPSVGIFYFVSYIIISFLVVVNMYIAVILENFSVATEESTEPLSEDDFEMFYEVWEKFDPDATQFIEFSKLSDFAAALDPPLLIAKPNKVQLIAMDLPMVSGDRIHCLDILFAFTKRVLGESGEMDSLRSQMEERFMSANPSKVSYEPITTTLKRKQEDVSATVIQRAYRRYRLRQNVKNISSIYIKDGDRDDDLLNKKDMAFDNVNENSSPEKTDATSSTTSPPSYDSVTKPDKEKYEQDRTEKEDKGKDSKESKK
Sequence of Nav1.5 (Q14524 whole entry): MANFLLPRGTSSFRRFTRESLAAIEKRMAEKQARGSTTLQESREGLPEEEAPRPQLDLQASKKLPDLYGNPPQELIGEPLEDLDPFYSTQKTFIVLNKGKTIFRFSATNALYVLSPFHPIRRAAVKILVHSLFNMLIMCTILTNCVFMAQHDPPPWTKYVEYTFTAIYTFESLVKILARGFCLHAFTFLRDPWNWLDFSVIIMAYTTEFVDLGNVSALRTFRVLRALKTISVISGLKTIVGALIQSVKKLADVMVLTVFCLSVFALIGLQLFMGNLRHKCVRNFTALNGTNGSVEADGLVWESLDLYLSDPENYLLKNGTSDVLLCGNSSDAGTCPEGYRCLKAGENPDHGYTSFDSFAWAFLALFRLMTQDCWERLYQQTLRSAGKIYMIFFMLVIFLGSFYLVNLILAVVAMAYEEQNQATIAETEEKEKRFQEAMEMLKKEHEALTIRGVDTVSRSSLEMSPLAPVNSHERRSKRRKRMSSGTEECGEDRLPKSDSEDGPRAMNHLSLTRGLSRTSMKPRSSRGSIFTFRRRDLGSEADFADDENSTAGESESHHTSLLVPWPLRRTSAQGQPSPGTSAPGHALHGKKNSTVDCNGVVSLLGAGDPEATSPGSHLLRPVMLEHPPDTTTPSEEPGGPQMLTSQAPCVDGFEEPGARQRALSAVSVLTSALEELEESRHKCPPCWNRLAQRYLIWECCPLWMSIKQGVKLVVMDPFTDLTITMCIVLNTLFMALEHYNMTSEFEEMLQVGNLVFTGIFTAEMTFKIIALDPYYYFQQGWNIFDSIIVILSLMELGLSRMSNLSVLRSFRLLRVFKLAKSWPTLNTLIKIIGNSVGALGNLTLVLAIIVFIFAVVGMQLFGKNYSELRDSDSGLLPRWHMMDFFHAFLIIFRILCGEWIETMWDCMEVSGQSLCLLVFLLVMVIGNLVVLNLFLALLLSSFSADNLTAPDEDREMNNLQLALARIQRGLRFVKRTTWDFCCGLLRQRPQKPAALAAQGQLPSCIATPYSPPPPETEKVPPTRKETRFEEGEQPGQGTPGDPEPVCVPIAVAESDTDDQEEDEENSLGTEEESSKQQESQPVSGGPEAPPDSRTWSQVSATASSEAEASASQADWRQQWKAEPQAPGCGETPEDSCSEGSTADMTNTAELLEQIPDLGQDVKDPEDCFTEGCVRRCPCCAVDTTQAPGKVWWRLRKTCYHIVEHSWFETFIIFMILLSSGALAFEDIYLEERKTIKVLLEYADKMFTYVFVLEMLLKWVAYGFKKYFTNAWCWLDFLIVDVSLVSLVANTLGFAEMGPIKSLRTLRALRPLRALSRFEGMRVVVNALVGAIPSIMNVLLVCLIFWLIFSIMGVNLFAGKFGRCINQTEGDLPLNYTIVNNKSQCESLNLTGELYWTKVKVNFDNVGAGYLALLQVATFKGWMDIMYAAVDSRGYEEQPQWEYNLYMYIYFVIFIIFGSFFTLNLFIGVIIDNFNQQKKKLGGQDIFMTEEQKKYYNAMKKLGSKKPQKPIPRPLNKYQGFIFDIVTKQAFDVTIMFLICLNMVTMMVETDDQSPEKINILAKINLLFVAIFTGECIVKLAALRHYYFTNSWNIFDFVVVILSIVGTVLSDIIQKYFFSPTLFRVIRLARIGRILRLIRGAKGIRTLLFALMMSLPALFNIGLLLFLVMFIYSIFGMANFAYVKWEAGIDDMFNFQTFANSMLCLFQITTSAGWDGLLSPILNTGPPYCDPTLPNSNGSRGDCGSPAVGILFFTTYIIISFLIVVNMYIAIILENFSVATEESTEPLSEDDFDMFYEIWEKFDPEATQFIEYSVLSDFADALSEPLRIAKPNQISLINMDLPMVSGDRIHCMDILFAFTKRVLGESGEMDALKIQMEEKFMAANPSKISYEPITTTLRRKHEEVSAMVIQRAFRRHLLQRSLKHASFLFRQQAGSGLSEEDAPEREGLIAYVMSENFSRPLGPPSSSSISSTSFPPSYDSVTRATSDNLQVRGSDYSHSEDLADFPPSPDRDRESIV
T7 sequence (P16389 whole entry): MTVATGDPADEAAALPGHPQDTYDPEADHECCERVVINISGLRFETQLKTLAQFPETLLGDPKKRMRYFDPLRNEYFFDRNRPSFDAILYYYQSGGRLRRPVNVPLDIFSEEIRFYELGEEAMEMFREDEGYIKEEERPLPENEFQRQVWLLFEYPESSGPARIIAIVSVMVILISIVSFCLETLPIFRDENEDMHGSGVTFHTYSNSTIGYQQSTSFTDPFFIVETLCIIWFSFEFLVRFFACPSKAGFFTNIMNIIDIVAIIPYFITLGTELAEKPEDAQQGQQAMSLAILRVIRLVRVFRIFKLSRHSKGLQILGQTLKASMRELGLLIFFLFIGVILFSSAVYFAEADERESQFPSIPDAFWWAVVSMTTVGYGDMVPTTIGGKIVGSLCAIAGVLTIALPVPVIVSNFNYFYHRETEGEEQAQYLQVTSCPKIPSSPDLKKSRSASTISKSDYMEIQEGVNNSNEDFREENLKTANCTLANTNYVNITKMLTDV
T2 sequence (P63252 whole entry): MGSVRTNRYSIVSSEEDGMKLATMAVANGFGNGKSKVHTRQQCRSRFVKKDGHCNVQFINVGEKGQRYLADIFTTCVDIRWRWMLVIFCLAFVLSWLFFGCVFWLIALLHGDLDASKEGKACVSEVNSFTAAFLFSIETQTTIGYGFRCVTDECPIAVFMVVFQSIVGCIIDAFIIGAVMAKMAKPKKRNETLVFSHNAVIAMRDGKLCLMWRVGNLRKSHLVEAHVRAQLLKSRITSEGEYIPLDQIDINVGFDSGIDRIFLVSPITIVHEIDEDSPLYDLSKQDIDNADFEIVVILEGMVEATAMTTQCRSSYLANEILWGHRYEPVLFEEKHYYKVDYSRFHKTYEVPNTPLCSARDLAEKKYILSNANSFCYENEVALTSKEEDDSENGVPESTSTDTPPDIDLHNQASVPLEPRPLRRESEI

In the case of “27 (GSACQFWSCNSSCISRGYRQGYCWGIQYKYCQCQ) [compound 27]”, the “Activity of NR2A with peptide, expressed as a percentage of the reference compound” value ([1]; peptide at 0.2 μM) is reported as 98%, the “Activity of NR2A with peptide (percentage of the reference compound)” value ([1]; peptide at 20 μM) is reported as 88% and the “Activity of Kir2.1 with peptide, expressed as a percentage of the reference compound” value ([2]; peptide at 0.2 μM) is reported as 101%. For the same substance, the “Activity of Kir2.1 with peptide (percentage of the reference compound)” value ([2]; peptide at 20 μM) was 86%, the “Activity of NR2B with peptide, expressed as a percentage of the reference compound” value ([3]; peptide at 0.2 μM) was 79% and the “Activity of NR2B with peptide (percentage of the reference compound)” value ([3]; peptide at 20 μM) was 89%. The “Activity of TRPA1 with peptide, expressed as a percentage of the reference compound” value ([4]; peptide at 0.2 μM) was 85%, the “Activity of TRPA1 with peptide (percentage of the reference compound)” value ([4]; peptide at 20 μM) was 114% and the “Activity of Nav1.5 with peptide, expressed as a percentage of the reference compound” value [5, 19] was 94%. For the same substance, the “Activity of Nav1.5 with peptide, expressed as a percentage of the reference compound” value [5, 20] was 93%, the “Activity of Nav1.5 with peptide (percentage of the reference compound)” value [5, 19] was 104% and the “Activity of Nav1.5 with peptide (percentage of the reference compound)” value [5, 20] was 109%. For the same substance, the “Activity of hERG with peptide, expressed as a percentage of the reference compound” value ([6]; peptide at 0.2 μM) was 90%, the “Activity of hERG with peptide (percentage of the reference compound)” value ([6]; peptide at 20 μM) was 75% and the “Activity of Kv1.1 with peptide, expressed as a percentage of the reference compound” value ([7]; peptide at 0.2 μM) was 81%. For the same substance, the “Activity of Kv1.1 with peptide (percentage of the reference compound)” value ([7]; peptide at 20 μM) was 89%, the “Activity of Kv1.3 with peptide, expressed as a percentage of the reference compound” value ([8]; peptide at 0.2 μM) was 106% and the “Activity of Kv1.3 with peptide (percentage of the reference compound)” value ([8]; peptide at 20 μM) was 100%. The “Activity of Kv1.2 with peptide, expressed as a percentage of the reference compound” value ([9]; peptide at 0.2 μM) was 84%, the “Activity of Kv1.2 with peptide (percentage of the reference compound)” value ([9]; peptide at 20 μM) was 107% and the “Activity of TRPV1 with peptide, expressed as a percentage of the reference compound” value ([10]; peptide at 0.2 μM) was 99%. The “Activity of TRPV1 with peptide (percentage of the reference compound)” value ([10]; peptide at 20 μM) was 67%, the “Activity of GABA with peptide, expressed as a percentage of the reference compound” value ([11]; peptide at 0.2 μM) was 112% and the “Activity of GABA with peptide (percentage of the reference compound)” value ([11]; peptide at 20 μM) was 105%. The “Activity of 5HT3a with peptide (percentage of the reference compound)” value [12] was 78%, the “Activity of 5HT3a with peptide, expressed as a percentage of the reference compound” value [12] was 105% and the “Activity of a4b2 with peptide, expressed as a percentage of the reference compound” value ([13]; peptide at 0.2 μM) was 90%. For the same substance, the “Activity of a4b2 with peptide (percentage of the reference compound)” value ([13]; peptide at 20 μM) was 82%, the “Activity of Cav2.1 with peptide, expressed as a percentage of the reference compound” value ([14]; peptide at 0.2 μM) was 108% and the “Activity of Cav2.1 with peptide (percentage of the reference compound)” value ([14]; peptide at 20 μM) was 103%. For the same substance, the “Activity of Kv2.1 with peptide, expressed as a percentage of the reference compound” value ([15]; peptide at 0.2 μM) was 91%, the “Activity of Kv2.1 with peptide (percentage of the reference compound)” value ([15]; peptide at 20 μM) was 94% and the “Activity of Cav2.2 with peptide, expressed as a percentage of the reference compound” value ([16]; peptide at 0.2 μM) was 105%. For the same substance, the “Activity of Cav2.2 with peptide (percentage of the reference compound)” value ([16]; peptide at 20 μM) was 116%, the “Activity of a3b4 with peptide, expressed as a percentage of the reference compound” value ([17]; peptide at 0.2 μM) was 98% and the “Activity of a3b4 with peptide (percentage of the reference compound)” value ([17]; peptide at 20 μM) was 93%. The “Activity of Nav1.7 with peptide, expressed as a percentage of the reference compound” value [18, 21] was 104%, the “Activity of Nav1.7 with peptide, expressed as a percentage of the reference compound” value [18, 22] was 114% and the “Activity of Nav1.7 with peptide (percentage of the reference compound)” value [18, 21] was 97%. The “Activity of Nav1.7 with peptide (percentage of the reference compound)” value [18, 22] was 97%.

Source: patent US20200262877A1, “ION CHANNEL-BINDING PEPTIDES AND METHODS OF USE THEREOF” (priority 2017, published 2020)
